Experimental data taken from PMC4506780.
Changes are numbered by the printed parent chain. In names and notes the source's numbering stands.

B1: RebH (Lentzea aerocolonigenes; K145M/M71V/S2P) (protein)
chain: MPGKIDKILIVGGGTAGWMAASYLGKALQGTADITLLQAPDIPTLGVGEATIPNLQTAFFDFLGIPEDEWVRECNASYKVAIKFINWRTAGEGTSEARELDGGPDHFYHSFGLLKYHEQIPLSHYWFDRSYRGKTVEPFDYACYMEPVILDANRSPRRLDGSKVTNYAWHFDAHLVADFLRRFATEKLGVRHVEDRVEHVQRDANGNIESVRTATGRVFDADLFVDCSGFRGLLINKAMEEPFLDMSDHLLNDSAVATQVPHDDDANGVEPFTSAIAMKSGWTWKIPMLGRFGTGYVYSSRFATEDEAVREFCEMWHLDPETQPLNRIRFRVGRNRRAWVGNCVSIGTSSCFVEPLESTGIYFVYAALYQLVKHFPDKSLNPVLTARFNREIETMFDDTRDFIQAHFYFSPRTDTPFWRANKELRLADGMQEKIDMYRAGMAINAPASDDAQLYYGNFEEEFRNFWNNSNYYCVLAGLGLVPDAPSPRLAHMPQATESVDEVFGAVKDRQRNLLETLPSLHEFLRQQHGR
B2: RebH (Lentzea aerocolonigenes; K145M/M71V/N467T/S2P) (protein)
chain: B1 chain with N467T

Substrate: c1ccc2c3c([nH]c2c1)CNCC3
Test: steady-state kinetics of chlorination
Type: biochemical, Lentzea aerocolonigenes
Conditions: cofactor regeneration as in Scheme 2

Row | Protein | Km (variant 1-PVM, 5 mol% enzyme) [µM] | kcat (variant 1-PVM, 5 mol% enzyme) [s⁻¹] | kcat/Km (variant 1-PVM, 5 mol% enzyme) [M⁻¹ s⁻¹] | Km (variant 2-T, 3 mol% enzyme) [µM] | kcat (variant 2-T, 3 mol% enzyme) [s⁻¹] | kcat/Km (variant 2-T, 3 mol% enzyme) [M⁻¹ s⁻¹]
1 | B1 | 215 | 0.000667 | 3.1 |  |  | 
2 | B2 |  |  |  | 236 | 0.000933 | 3.95
